Measurements as given in patent US20130004519A1 (published 2013).

Legend:
[1] = biological target: T1, horse fibronectin coupled to CNBr-activated Sepharose 4B (horse, UniProt Q28377 32-2477, limits assumed); test: pull-down from HEK293 conditioned medium on horse fibronectin-Sepharose 4B, nanoLC-MSMS
T1 construct: Second control column of the pull-down; also called fibronectin column; FN-column

[2] = biological target: T2, His-tagged human tenascin-C (human, UniProt P24821 23-2201); test: SPR (Biacore 2000), tenascin-C-his on CM5 chip, SMOC1 as analyte 3-300 nM, Langmuir 1:1 model, apparent KD
T2 construct: mature; The same construct was coupled to Sepharose 4B, coupled to the CM5 chip and expressed in COS cells for co-immunoprecipitation; also called TNC; hTNC; not shown: His tag
T2 sequence (P24821 23-2201): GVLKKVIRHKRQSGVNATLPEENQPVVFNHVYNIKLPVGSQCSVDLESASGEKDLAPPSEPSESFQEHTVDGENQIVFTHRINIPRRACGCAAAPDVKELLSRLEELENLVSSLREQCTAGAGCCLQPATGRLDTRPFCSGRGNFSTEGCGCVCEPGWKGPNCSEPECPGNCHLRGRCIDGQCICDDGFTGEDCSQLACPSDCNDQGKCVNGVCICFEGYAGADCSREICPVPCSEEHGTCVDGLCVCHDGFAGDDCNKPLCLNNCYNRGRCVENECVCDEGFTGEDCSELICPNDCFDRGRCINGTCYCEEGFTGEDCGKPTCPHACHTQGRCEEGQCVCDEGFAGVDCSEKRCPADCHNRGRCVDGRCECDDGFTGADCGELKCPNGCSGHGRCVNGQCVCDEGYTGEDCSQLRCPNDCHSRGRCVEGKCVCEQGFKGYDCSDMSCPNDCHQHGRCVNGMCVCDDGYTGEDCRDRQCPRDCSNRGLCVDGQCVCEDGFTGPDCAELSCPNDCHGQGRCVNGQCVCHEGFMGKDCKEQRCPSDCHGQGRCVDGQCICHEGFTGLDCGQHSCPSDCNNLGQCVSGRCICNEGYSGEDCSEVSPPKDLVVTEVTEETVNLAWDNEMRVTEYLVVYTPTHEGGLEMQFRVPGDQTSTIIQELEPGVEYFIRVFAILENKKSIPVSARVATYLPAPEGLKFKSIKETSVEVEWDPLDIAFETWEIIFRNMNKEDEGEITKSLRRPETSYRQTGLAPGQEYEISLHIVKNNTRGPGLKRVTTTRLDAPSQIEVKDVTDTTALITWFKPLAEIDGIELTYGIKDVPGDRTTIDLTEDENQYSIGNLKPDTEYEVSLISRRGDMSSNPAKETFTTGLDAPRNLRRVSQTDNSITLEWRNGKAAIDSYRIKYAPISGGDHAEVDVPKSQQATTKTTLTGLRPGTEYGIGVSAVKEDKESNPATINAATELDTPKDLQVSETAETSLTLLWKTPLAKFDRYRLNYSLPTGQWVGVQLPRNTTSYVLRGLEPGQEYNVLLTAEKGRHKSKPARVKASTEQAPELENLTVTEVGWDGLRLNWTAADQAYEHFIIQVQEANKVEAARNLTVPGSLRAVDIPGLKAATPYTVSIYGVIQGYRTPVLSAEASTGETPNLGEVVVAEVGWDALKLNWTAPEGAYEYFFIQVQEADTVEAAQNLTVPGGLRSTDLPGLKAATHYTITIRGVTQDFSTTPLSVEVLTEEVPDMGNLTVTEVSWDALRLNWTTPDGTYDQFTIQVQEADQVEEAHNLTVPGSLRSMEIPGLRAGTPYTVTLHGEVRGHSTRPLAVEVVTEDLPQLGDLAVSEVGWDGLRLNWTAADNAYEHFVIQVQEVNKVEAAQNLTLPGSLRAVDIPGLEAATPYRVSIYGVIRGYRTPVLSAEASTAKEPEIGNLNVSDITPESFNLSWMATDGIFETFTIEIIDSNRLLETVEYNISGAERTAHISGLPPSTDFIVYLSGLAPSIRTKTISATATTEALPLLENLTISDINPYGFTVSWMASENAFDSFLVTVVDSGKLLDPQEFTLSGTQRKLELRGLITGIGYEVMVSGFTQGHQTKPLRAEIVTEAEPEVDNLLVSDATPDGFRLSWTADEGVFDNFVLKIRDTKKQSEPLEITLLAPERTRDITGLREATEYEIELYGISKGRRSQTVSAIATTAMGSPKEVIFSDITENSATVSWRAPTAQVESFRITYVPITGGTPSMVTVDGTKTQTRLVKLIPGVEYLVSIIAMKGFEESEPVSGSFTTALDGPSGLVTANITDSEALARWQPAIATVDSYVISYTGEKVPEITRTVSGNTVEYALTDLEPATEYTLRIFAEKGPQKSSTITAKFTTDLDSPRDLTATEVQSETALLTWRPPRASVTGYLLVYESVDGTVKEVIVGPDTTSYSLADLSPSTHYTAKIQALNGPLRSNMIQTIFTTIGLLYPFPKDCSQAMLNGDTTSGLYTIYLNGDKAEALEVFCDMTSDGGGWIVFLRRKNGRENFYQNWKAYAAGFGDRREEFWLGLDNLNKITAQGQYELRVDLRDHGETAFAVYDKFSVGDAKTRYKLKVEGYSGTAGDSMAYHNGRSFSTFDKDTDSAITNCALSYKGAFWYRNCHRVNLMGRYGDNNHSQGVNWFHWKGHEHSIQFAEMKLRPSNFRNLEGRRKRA
Experimental: Surface Plasmon Resonance Spectroscopy. Surface plasmon resonance spectroscopy was performed using a Biacore 2000 (BIAcore AB) system. Purified human tenascin-his protein was coupled in 25 mM sodium acetate pH 5 with a flow rate of 5 μl/min to a CM5 chip beforehand activated with N-hydroxysuccinimide and 1-ethyl-3-(3-dimethylaminopropyl)carbodiimide hydrochloride. Unbound reactive groups were then saturated with 1 M ethanolamine hydrochloride, pH 8.5. Experiments were carried out using increasing concentrations (3, 10, 30, 100 and 300 nM) of SMOC1 diluted in running buffer (pH 7.4, 20 mM Hepes, 150 mM NaCl, 2 mM CaCl2, 0.005% P20). The analyte was passed over the sensor chip with a constant flow rate of 25 μl/min for 240 s, and dissociation was measured over 500 s. Fittings of the data, overlay plots, and calculation of KD values were done with BIAevaluation software 4.1.
Interaction between tenascin-C and SMOC1 by Surface Plasmon Resonance Spectroscopy. In order to firmly establish binding between SMOC1 and tenascin-C, the present inventors performed Surface Plasmon Resonance Spectroscopy. Purified his-tagged tenascin-C was coupled to a CM5 chip and SMOC1 were tested as soluble analyte at increasing concentrations. Associations and dissociations of the obtained binding curves were analyzed in a Langmuir 1:1 binding model. […]

[3] = biological target: T2, His-tagged human tenascin-C; test: pull-down on tenascin-C-Sepharose 4B, multiple reaction monitoring

T1 sequence (Q28377 32-2477 limits assumed): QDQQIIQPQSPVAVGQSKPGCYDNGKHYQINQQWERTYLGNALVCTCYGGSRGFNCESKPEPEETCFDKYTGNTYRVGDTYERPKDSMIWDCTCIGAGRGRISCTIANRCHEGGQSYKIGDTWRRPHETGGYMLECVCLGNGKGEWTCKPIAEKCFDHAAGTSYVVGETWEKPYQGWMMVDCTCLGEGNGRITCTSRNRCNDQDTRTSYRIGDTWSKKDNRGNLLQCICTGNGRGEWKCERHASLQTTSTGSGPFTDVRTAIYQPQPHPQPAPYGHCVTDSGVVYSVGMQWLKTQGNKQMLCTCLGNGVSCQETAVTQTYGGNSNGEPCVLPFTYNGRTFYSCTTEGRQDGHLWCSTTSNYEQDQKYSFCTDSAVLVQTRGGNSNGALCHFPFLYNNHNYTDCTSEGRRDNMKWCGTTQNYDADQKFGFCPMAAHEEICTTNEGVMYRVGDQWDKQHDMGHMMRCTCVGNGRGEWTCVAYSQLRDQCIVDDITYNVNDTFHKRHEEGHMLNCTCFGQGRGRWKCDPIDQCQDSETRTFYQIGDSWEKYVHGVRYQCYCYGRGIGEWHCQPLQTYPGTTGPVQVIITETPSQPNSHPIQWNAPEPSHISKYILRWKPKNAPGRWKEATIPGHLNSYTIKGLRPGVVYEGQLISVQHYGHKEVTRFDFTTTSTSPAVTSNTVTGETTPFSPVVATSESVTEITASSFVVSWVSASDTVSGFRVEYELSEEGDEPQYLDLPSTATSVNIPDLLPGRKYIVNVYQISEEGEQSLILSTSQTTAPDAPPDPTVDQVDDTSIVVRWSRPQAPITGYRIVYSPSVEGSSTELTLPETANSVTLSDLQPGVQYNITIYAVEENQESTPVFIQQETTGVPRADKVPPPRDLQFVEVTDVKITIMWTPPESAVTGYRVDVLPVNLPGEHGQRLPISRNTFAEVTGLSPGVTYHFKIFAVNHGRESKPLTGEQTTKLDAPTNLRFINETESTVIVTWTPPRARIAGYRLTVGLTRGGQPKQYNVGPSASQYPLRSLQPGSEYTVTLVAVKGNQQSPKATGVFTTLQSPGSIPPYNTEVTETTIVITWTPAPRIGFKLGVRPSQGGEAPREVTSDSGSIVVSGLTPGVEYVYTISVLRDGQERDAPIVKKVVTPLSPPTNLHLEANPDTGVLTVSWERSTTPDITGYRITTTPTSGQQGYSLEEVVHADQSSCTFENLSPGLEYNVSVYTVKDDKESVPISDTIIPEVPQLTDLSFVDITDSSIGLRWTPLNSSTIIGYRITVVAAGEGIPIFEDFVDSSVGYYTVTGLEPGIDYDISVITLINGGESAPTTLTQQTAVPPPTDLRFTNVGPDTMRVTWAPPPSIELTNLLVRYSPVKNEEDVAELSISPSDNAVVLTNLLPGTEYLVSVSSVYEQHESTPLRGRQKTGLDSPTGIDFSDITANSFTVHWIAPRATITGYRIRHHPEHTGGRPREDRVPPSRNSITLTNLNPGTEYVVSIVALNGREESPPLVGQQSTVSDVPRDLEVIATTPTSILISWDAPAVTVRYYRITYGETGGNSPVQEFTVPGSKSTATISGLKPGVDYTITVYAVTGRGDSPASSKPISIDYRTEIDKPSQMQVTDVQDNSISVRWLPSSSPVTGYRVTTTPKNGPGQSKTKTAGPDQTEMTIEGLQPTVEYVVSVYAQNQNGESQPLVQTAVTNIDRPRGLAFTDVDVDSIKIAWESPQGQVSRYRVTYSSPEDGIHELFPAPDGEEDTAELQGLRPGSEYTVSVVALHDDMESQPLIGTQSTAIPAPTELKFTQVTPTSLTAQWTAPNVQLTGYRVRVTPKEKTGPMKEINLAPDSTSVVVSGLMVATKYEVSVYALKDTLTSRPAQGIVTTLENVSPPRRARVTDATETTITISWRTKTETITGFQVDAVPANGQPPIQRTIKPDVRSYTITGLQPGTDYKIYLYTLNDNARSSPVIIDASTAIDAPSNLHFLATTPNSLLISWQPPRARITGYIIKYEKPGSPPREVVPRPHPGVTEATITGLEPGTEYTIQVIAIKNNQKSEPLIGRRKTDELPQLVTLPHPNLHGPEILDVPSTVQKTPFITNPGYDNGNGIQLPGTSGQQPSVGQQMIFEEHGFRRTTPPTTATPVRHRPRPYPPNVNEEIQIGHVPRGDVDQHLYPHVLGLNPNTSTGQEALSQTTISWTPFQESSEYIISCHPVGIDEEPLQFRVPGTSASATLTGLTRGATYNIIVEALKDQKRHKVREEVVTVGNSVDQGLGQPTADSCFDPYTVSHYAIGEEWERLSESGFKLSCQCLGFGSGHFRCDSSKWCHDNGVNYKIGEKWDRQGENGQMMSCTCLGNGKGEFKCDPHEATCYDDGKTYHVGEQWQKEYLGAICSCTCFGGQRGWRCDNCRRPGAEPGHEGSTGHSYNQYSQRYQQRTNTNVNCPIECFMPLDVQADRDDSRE

B1: Nidogen-2 (other, human, UniProt Q14112 31-1375, looked up)
chain: LHPDELFPHGESWGDQLLQEGDDESSAVVKLANPLHFYEARFSNLYVGTNGIISTQDFPRETQYVDYDFPTDFPAIAPFLADIDTSHGRGRVLYREDTSPAVLGLAARYVRAGFPRSARFTPTHAFLATWEQVGAYEEVKRGALPSGELNTFQAVLASDGSDSYALFLYPANGLQFLGTRPKESYNVQLQLPARVGFCRGEADDLKSEGPYFSLTSTEQSVKNLYQLSNLGIPGVWAFHIGSTSPLDNVRPAAVGDLSAAHSSVPLGRSFSHATALESDYNEDNLDYYDVNEEEAEYLPGEPEEALNGHSSIDVSFQSKVDTKPLEESSTLDPHTKEGTSLGEVGGPDLKGQVEPWDERETRSPAPPEVDRDSLAPSWETPPPYPENGSIQPYPDGGPVPSEMDVPPAHPEEEIVLRSYPASGHTTPLSRGTYEVGLEDNIGSNTEVFTYNAANKETCEHNHRQCSRHAFCTDYATGFCCHCQSKFYGNGKHCLPEGAPHRVNGKVSGHLHVGHTPVHFTDVDLHAYIVGNDGRAYTAISHIPQPAAQALLPLTPIGGLFGWLFALEKPGSENGFSLAGAAFTHDMEVTFYPGEETVRITQTAEGLDPENYLSIKTNIQGQVPYVSANFTAHISPYKELYHYSDSTVTSTSSRDYSLTFGAINQTWSYRIHQNITYQVCRHAPRHPSFPTTQQLNVDRVFALYNDEERVLRFAVTNQIGPVKEDSDPTPGNPCYDGSHMCDTTARCHPGTGVDYTCECASGYQGDGRNCVDENECATGFHRCGPNSVCINLPGSYRCECRSGYEFADDRHTCILITPPANPCEDGSHTCAPAGQARCVHHGGSTFSCACLPGYAGDGHQCTDVDECSENRCHPAATCYNTPGSFSCRCQPGYYGDGFQCIPDSTSSLTPCEQQQRHAQAQYAYPGARFHIPQCDEQGNFLPLQCHGSTGFCWCVDPDGHEVPGTQTPPGSTPPHCGPSPEPTQRPPTICERWRENLLEHYGGTPRDDQYVPQCDDLGHFIPLQCHGKSDFCWCVDKDGREVQGTRSQPGTTPACIPTVAPPMVRPTPRPDVTPPSVGTFLLYTQGQQIGYLPLNGTRLQKDAAKTLLSLHGSIIVGIDYDCRERMVYWTDVAGRTISRAGLELGAEPETIVNSGLISPEGLAIDHIRRTMYWTDSVLDKIESALLDGSERKVLFYTDLVNPRAIAVDPIRGNLYWTDWNREAPKIETSSLDGENRRILINTDIGLPNGLTFDPFSKLLCWADAGTKKLECTLPDGTGRRVIQNNLKYPFSIVSYADHFYHTDWRRDGVVSVNKHSGQFTDEYLPEQRSHLYGITAVYPYCPTGRK
notes: also called NID2
MASCOT Score (fibronectin) [1]: 0 | spectrum count (fibronectin) [1]: 0

B2: human recombinant SMOC1 (soluble analyte in surface plasmon resonance) (other, UniProt Q9H4F8 27-434, looked up)
chain: HRTTGPRFLISDRDPQCNLHCSRTQPKPICASDGRSYESMCEYQRAKCRDPTLGVVHRGRCKDAGQSKCRLERAQALEQAKKPQEAVFVPECGEDGSFTQVQCHTYTGYCWCVTPDGKPISGSSVQNKTPVCSGSVTDKPLSQGNSGRKDDGSKPTPTMETQPVFDGDEITAPTLWIKHLVIKDSKLNNTNIRNSEKVYSCDQERQSALEEAQQNPREGIVIPECAPGGLYKPVQCHQSTGYCWCVLVDTGRPLPGTSTRYVMPSCESDARAKTTEADDPFKDRELPGCPEGKKMEFITSLLDALTTDMVQAINSAAPTGGGRFSEPDPSHTLEERVVHWYFSQLDSNSSNDINKREMKPFKRYVKKKAKPKKCARRFTDYCDLNKDKVISLPELKGCLGVSKEGRLV
notes: mature; also called hSMOC1; not shown: C-terminal tag: either 6 histidines alone (SMOC1-his) or myc-DDK plus 6 histidines
Kd [2]: 2.2 nM

B3: SPARC-related modular calcium-binding protein 1 (SMOC1) from HEK293 conditioned medium (other, human, UniProt Q9H4F8 27-434, looked up)
chain: HRTTGPRFLISDRDPQCNLHCSRTQPKPICASDGRSYESMCEYQRAKCRDPTLGVVHRGRCKDAGQSKCRLERAQALEQAKKPQEAVFVPECGEDGSFTQVQCHTYTGYCWCVTPDGKPISGSSVQNKTPVCSGSVTDKPLSQGNSGRKDDGSKPTPTMETQPVFDGDEITAPTLWIKHLVIKDSKLNNTNIRNSEKVYSCDQERQSALEEAQQNPREGIVIPECAPGGLYKPVQCHQSTGYCWCVLVDTGRPLPGTSTRYVMPSCESDARAKTTEADDPFKDRELPGCPEGKKMEFITSLLDALTTDMVQAINSAAPTGGGRFSEPDPSHTLEERVVHWYFSQLDSNSSNDINKREMKPFKRYVKKKAKPKKCARRFTDYCDLNKDKVISLPELKGCLGVSKEGRLV
notes: Endogenous protein pulled down from medium
MASCOT Score (fibronectin) [1]: 0 | spectrum count (fibronectin) [1]: 0 | normalized enrichment (MRM), tenascin-C against control [3]: 4.5 fold

B4: Phosphoglycerate kinase 1 (enzyme, human, UniProt P00558 2-417, looked up)
chain: SLSNKLTLDKLDVKGKRVVMRVDFNVPMKNNQITNNQRIKAAVPSIKFCLDNGAKSVVLMSHLGRPDGVPMPDKYSLEPVAVELKSLLGKDVLFLKDCVGPEVEKACANPAAGSVILLENLRFHVEEEGKGKDASGNKVKAEPAKIEAFRASLSKLGDVYVNDAFGTAHRAHSSMVGVNLPQKAGGFLMKKELNYFAKALESPERPFLAILGGAKVADKIQLINNMLDKVNEMIIGGGMAFTFLKVLNNMEIGTSLFDEEGAKIVKDLMSKAEKNGVKITLPVDFVTADKFDENAKTGQATVASGIPAGWMGLDCGPESSKKYAEAVTRAKQIVWNGPVGVFEWEAFARGTKALMDEVVKATSRGCITIIGGGDTATCCAKWNTEDKVSHVSTGGGASLELLEGKVLPGVDALSNI
notes: also called PGK1
MASCOT Score (fibronectin) [1]: 100 | spectrum count (fibronectin) [1]: 6
